± gives the standard deviation.
Test: protein stability index of a GFP-peptide fusion (GPS, HEK-293T) (PSI 1-6); higher = more stable
[1] = treatment: DMSO, c terminus: a fixed tail appended
[2] = treatment: MLN4924 1 uM, 8 h, c terminus: a fixed tail appended
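Also: 24-mer peptide tiles fused after GFP, lentivirally expressed, FACS-sorted into six equal bins by GFP/DsRed ratio, decoded by Illumina sequencing, PSI is the read-weighted mean bin number.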

Sequence: PDPGPSPEASHLRFRRFRFQEAAG [ZNF263]
- protein stability index [1]: 3.16 ± 0.13
- protein stability index [2]: 3.23 ± 0.31

Sequence: VTSTSQSPHSPDSSQSSLAQEEEE [DDIT3]
- protein stability index [1]: 5.53 ± 0.1
- protein stability index [2]: 5.64 ± 0.12

Sequence: FLESTDSFNNELKRLCGLKVEVDM [SMARCE1]
- protein stability index [1]: 4.08 ± 0.23
- protein stability index [2]: 4.22 ± 0.21

Sequence: ITTLRVPVLRPMDLMVEATPRRVF [PPP2R2B]
- protein stability index [1]: 2.52 ± 0.17
- protein stability index [2]: 2.71 ± 0.27

Sequence: ASGSVLRLVDAVLGAEIRNGMAII [HDAC6]
- protein stability index [1]: 2.91 ± 0.56
- protein stability index [2]: 2.55 ± 0.58

Sequence: EIPLVIKYKKAVGLKLKQEKKEAY [WDR88]
- protein stability index [1]: 2.88 ± 0.32
- protein stability index [2]: 2.56 ± 0.13

Sequence: LSLESSPDAPDHTSETSHSPLYAD [PLEKHN1]
- protein stability index [1]: 5.47 ± 0.16
- protein stability index [2]: 5.38 ± 0.24

Sequence: AIQAFLDKCSAPKIWRTPNGKTIE [IQUB]
- protein stability index [1]: 2.36 ± 0.48
- protein stability index [2]: 2.27 ± 0.22

Sequence: DFDGKLKDIAGEFKEQLQALIPYV [ATL3]
- protein stability index [1]: 2.38 ± 0.47
- protein stability index [2]: 2.94 ± 0.31

Sequence: NRLMLAVRDMMANFHLNDLEAPHE [TCF25]
- protein stability index [1]: 2.5 ± 0.42
- protein stability index [2]: 2.42 ± 0.24

Sequence: GGLGGGYGGGLGGGFGGGFAGGFV [KRT13]
- protein stability index [1]: 2.16 ± 0.25
- protein stability index [2]: 2.1 ± 0.82

Sequence: ALARLGTVTVISPLELMRTKLQAQ [SLC25A39]
- protein stability index [1]: 2.18 ± 0.39
- protein stability index [2]: 2.15 ± 0.72

Sequence: RALSDTTEELTVIKSSLKDEYQYS [SLC2A12]
- protein stability index [1]: 4.54 ± 0.22
- protein stability index [2]: 4.68 ± 0.08

Sequence: SEEYQQAQHKFLVAVESMEPNNIV [TCF25]
- protein stability index [1]: 4.26 ± 0.22
- protein stability index [2]: 4.29 ± 0.15

Sequence: KLILTSSASVIFEGVDIKNGTEDL [NSDHL]
- protein stability index [1]: 3.13 ± 0.33
- protein stability index [2]: 3.27 ± 0.22

Sequence: DYRGPDCRYLNFTKGEEISVYVKL [MIA2]
- protein stability index [1]: 2.45 ± 0.53
- protein stability index [2]: 2.81 ± 0.95

Sequence: LHSEFDEQHGKKVPTVSRPYSFIE [SEC22B]
- protein stability index [1]: 4.04 ± 0.13
- protein stability index [2]: 4.14 ± 0.24

Sequence: DRLTTFQENQARTHVLSKEVQHLR [LRRC45]
- protein stability index [1]: 4.12 ± 0.13
- protein stability index [2]: 4.29 ± 0.16

Sequence: KSLSIQYLELDRLVWRNSIRSSFI [FBXO39]
- protein stability index [1]: 2.51 ± 0.64
- protein stability index [2]: 2.28 ± 0.17

Sequence: YDAYRTDLEELSLGPRDAGTRGRL [ARFIP2]
- protein stability index [1]: 4.1 ± 0.29
- protein stability index [2]: 4.35 ± 0.15

Sequence: NHGLVSVGESVEEAFYYIHNLVVA [ADD1]
- protein stability index [1]: 2.24 ± 0.31
- protein stability index [2]: 2.1 ± 0.58

Sequence: GLKASLERLQLEYVDVVFANRPDP [KCNAB2]
- protein stability index [1]: 2.47 ± 0.42
- protein stability index [2]: 2.21 ± 0.37

Sequence: KKKAIQEEEERDQALQAKASLTIP [YJU2B]
- protein stability index [1]: 5.27 ± 0.22
- protein stability index [2]: 5.4 ± 0.21

Sequence: STDIGALMYPSYTFSGDVQLAQDD [MMP1]
- protein stability index [1]: 4.9 ± 0.13
- protein stability index [2]: 4.74 ± 0.28

Sequence: FPAMLFSSMLTGILWDTLLRLCAW [POMT2]
- protein stability index [1]: 3.23 ± 0.51
- protein stability index [2]: 3.09 ± 0.12

Sequence: QDDISSSYTTTTTITAPPSRVLQN [SCD]
- protein stability index [1]: 4.71 ± 0.3
- protein stability index [2]: 4.89 ± 0.3

Sequence: DTLRRRLLAPEAGSHPQQTQKLEE [TOR1AIP2]
- protein stability index [1]: 5.35 ± 0.3
- protein stability index [2]: 5.41 ± 0.15

Sequence: VFPPEVPISEKAKDLILRFCIDSE [STK38L]
- protein stability index [1]: 3.06 ± 0.35
- protein stability index [2]: 3.32 ± 0.42

Sequence: QESDQTEEHESGIEQFSESHAIHV [IQUB]
- protein stability index [1]: 5.34 ± 0.18
- protein stability index [2]: 5.45 ± 0.22

Sequence: GFTPLHMAVDKDTTNVGRYPVGRF [FEM1A]
- protein stability index [1]: 3.43 ± 0.089
- protein stability index [2]: 3.6 ± 0.36

Sequence: FSLMVTFPDVPLGIFLFCVCVIAI [TMEM175]
- protein stability index [1]: 3.37 ± 0.5
- protein stability index [2]: 3.14 ± 0.31

Sequence: YGHCTAGGEGVEVELLHNTSYTRQ [SCNN1D]
- protein stability index [1]: 3.71 ± 0.22
- protein stability index [2]: 3.8 ± 0.25

Sequence: TQAPPSVILGVTNPFFAKTLQHWP [DENND6A]
- protein stability index [1]: 2.26 ± 0.24
- protein stability index [2]: 2.12 ± 0.17

Sequence: EEKKPGELKRLVESRRQQILREFE [TRIM39]
- protein stability index [1]: 4.43 ± 0.55
- protein stability index [2]: 4.59 ± 0.22

Sequence: QKPRGLEGGVLRGSKLEKGHLRGP [ZSWIM9]
- protein stability index [1]: 3.98 ± 0.63
- protein stability index [2]: 3.82 ± 0.54

Sequence: NVQILLPVGEPVTNVRLQPAATWN [FCHO1]
- protein stability index [1]: 2.32 ± 0.22
- protein stability index [2]: 2.44 ± 0.19

Sequence: LTDAVAPGNKGRGQRGNTESKTDG [TCF25]
- protein stability index [1]: 5.5 ± 0.27
- protein stability index [2]: 5.48 ± 0.45

Sequence: QAIDHGCEHICVNSDDSYTCECLE [MATN2]
- protein stability index [1]: 5.43 ± 0.098
- protein stability index [2]: 5.14 ± 0.28

Sequence: IVRRRSRDVPESPQHAADTPKSGE [YJU2B]
- protein stability index [1]: 5.06 ± 0.25
- protein stability index [2]: 5.21 ± 0.22

Sequence: SSPQGKSGPEAARAGGWVSGEEFY [PKD2L1]
- protein stability index [1]: 4.51 ± 0.2
- protein stability index [2]: 4.54 ± 0.17

Sequence: QAWFGFAGTPGYLSPEVLRKDPYG [CAMK2D]
- protein stability index [1]: 2.86 ± 0.79
- protein stability index [2]: 2.94 ± 0.39

Sequence: YSCPATNECEITKRRRKSCQACRF [ESRRG]
- protein stability index [1]: 3.59 ± 0.51
- protein stability index [2]: 4.15 ± 0.29

Sequence: EEAEAGEEAVPEEEGPTVVLNPHP [CHGA]
- protein stability index [1]: 5.59 ± 0.14
- protein stability index [2]: 5.44 ± 0.28

Sequence: MGFVPHNGSLYGQASSERLGLDNR [ADAMTSL2]
- protein stability index [1]: 3.59 ± 0.38
- protein stability index [2]: 3.66 ± 0.35

Sequence: KCGIHSMFPLHLAALNAHSDCCRK [ANKRD44]
- protein stability index [1]: 2.36 ± 0.2
- protein stability index [2]: 2.62 ± 0.33

Sequence: MNKSENLLFAGSSLASQVHAAAVN [INVS]
- protein stability index [1]: 3.11 ± 0.24
- protein stability index [2]: 3.35 ± 0.34

Sequence: WNITKLSIEYDSEPFGKERDAAIK [CRY1]
- protein stability index [1]: 2.9 ± 0.29
- protein stability index [2]: 2.9 ± 0.28

Sequence: ANHVFFLLYLLHILLLDGAAWLTL [FADS1]
- protein stability index [1]: 3.23 ± 0.61
- protein stability index [2]: 3.39 ± 0.6

Sequence: GQINVVKHLLNLGVEIDEINVYGN [ANKRD44]
- protein stability index [1]: 2.32 ± 0.46
- protein stability index [2]: 2.29 ± 0.3

Sequence: QQHSDKTSLQGLTGTPLVAGSPIR [ISL2]
- protein stability index [1]: 4.2 ± 0.21
- protein stability index [2]: 4.39 ± 0.13

Sequence: QECPPDGRSFREEQCVSFNSHVYN [ADAMTSL2]
- protein stability index [1]: 4.08 ± 0.11
- protein stability index [2]: 3.91 ± 0.2

Sequence: SNVGTAISKKFGDMSYSIRHSISM [TPD52L1]
- protein stability index [1]: 2.19 ± 0.49
- protein stability index [2]: 2.26 ± 0.45

Sequence: PVGFGRRTDPNGDYIRRYLPVLRG [CRY1]
- protein stability index [1]: 3.14 ± 0.2
- protein stability index [2]: 3.17 ± 0.39

Sequence: KNKMMVCQVGGIEALVRTVLRAGD [CTNNB1]
- protein stability index [1]: 2.51 ± 0.45
- protein stability index [2]: 2.22 ± 0.21

Sequence: HFDATRGWLLTSGTDKVIKLWDMT [WDFY2]
- protein stability index [1]: 2.43 ± 0.3
- protein stability index [2]: 2.78 ± 0.41

Sequence: TGDPLPEISKDNSCKENCTCSSCL [EDARADD]
- protein stability index [1]: 5.47 ± 0.3
- protein stability index [2]: 5.47 ± 0.26

Sequence: LRKHRELCDVVLVVGAKKIYAHRV [KLHL20]
- protein stability index [1]: 2.67 ± 0.5
- protein stability index [2]: 2.3 ± 0.43

Sequence: RGWLLTSGTDKVIKLWDMTPVVS [WDFY2]
- protein stability index (treatment: DMSO, c terminus: native): 2.01 ± 0.2
- protein stability index (treatment: MLN4924 1 uM, 8 h, c terminus: native): 2.26 ± 0.24

Sequence: KKKKKQKNKKSSTGEASENGLEDI [TCF25]
- protein stability index [1]: 5.04 ± 0.097
- protein stability index [2]: 4.49 ± 0.25

Sequence: RFCLPHLVALAEQHAVQELTKAAT [RHOBTB1]
- protein stability index [1]: 2.12 ± 0.18
- protein stability index [2]: 2.08 ± 0.15

Sequence: MGVVSLVFLIIYYLDPSVLSGVSC [ARL6IP1]
- protein stability index [1]: 3.18 ± 0.51
- protein stability index [2]: 3.13 ± 0.33

Sequence: QERPRPEPGRLGSSSPASVTTEQL [PXN]
- protein stability index [1]: 5.29 ± 0.3
- protein stability index [2]: 5.12 ± 0.39

Sequence: PYIPPHAALCLEVTLKTAVDGPDL [FKBP8]
- protein stability index [1]: 2.32 ± 0.41
- protein stability index [2]: 2.23 ± 0.2

Sequence: ERENVAVAKLQESQPGNAVIDKET [SDE2]
- protein stability index [1]: 5.37 ± 0.25
- protein stability index [2]: 5.06 ± 0.21

Sequence: IDCKFNAESQGCNHEEDAGVRCNT [LOXL2]
- protein stability index [1]: 5.13 ± 0.22
- protein stability index [2]: 5.22 ± 0.1

Sequence: KLNEQSPTRCTLEAGAMTFHYIIE [SEC22B]
- protein stability index [1]: 2.38 ± 0.75
- protein stability index [2]: 2.25 ± 0.46

Sequence: PKKLLNPVKASRSHQELHRELLMN [FAM107A]
- protein stability index [1]: 3.17 ± 0.21
- protein stability index [2]: 3.19 ± 0.29

Sequence: KVMIHPDPERRPSAMALVKHSVLL [WEE1]
- protein stability index [1]: 2.22 ± 0.14
- protein stability index [2]: 2.34 ± 0.57

Sequence: QQRPHPRSHSREPRAERKCPRIAP [ELOA2]
- protein stability index [1]: 4.49 ± 0.46
- protein stability index [2]: 4.53 ± 0.071

Sequence: RKQRRRERWLQKQGKYSGVGLLDH [RNF180]
- protein stability index [1]: 3.43 ± 0.26
- protein stability index [2]: 3.94 ± 0.33

Sequence: ACLIVMFLPEKKDTGVFAVVNSHS [SLC22A15]
- protein stability index [1]: 3.22 ± 0.56
- protein stability index [2]: 2.12 ± 0.19

Sequence: RGRFTTYEIRVKTNLPIFKLKEST [SNX3]
- protein stability index [1]: 2.54 ± 0.98
- protein stability index [2]: 2.47 ± 0.57

Sequence: EVKPKDIIHVVKDQLIGQGIIVKD [TENT5D]
- protein stability index [1]: 3.52 ± 0.066
- protein stability index [2]: 3.73 ± 0.25

Sequence: CYLSFPDSNSGCLGDTQFCFRFRQ [DENND6A]
- protein stability index [1]: 2.25 ± 0.28
- protein stability index [2]: 2.4 ± 0.63

Sequence: HRRRSRERGPYRTRKHAHHCHKRR [CLK3]
- protein stability index [1]: 4.49 ± 0.31
- protein stability index [2]: 4.57 ± 0.25

Sequence: FQGSMRIFTKKLPHPDLPAEEKEQ [USP39]
- protein stability index [1]: 2.55 ± 0.75
- protein stability index [2]: 3.77 ± 0.69

Sequence: NLLESKADGIEVSYNACGVLSHIM [ZER1]
- protein stability index [1]: 2.25 ± 0.08
- protein stability index [2]: 2.31 ± 0.28

Sequence: NQPTRFGKLLLRLPSLRTVSSSVI [NR2F2]
- protein stability index [1]: 2.44 ± 0.24
- protein stability index [2]: 2.5 ± 0.2

Sequence: SQTDRGASAGKRRCFWLGMEGLET [SDE2]
- protein stability index [1]: 2.87 ± 0.45
- protein stability index [2]: 2.96 ± 0.14

Sequence: VSRRTSEACMTHLHYKWIPVEDSH [DUSP5]
- protein stability index [1]: 3.04 ± 0.34
- protein stability index [2]: 3.08 ± 0.21

Sequence: LTVLQRLDVWLSGGNDLCVWNRKL [WDR41]
- protein stability index [1]: 2.17 ± 1
- protein stability index [2]: 2.39 ± 0.32

From the supplement of paper PMC10567573
